The assay has as its target NLuc-CLR:RAMP3 (N-terminally nanoluciferase-tagged CLR co-expressed with RAMP3; AM2 receptor) (human) (UniProt Q16602). In words: FRET or BRET. Background: In BRET a luciferase serves as donor, and the signal depends on an acceptor being close.

pKd: −log10 of the molar value.

Sequence of NLuc-CLR:RAMP3 (N-terminally nanoluciferase-tagged CLR co-expressed with RAMP3; AM2 receptor) (human) (Q16602 23-461, chain 1 of 2): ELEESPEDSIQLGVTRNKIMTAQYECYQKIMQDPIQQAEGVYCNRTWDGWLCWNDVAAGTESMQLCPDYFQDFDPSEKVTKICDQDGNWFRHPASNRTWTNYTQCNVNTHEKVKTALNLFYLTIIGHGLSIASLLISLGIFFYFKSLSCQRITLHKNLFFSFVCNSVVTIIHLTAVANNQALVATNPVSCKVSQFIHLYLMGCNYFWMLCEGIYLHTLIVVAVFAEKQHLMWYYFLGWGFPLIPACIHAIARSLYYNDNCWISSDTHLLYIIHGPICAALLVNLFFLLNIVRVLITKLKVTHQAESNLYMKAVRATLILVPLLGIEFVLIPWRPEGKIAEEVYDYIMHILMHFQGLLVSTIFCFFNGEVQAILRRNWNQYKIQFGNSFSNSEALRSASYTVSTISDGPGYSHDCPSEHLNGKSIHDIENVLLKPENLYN
Sequence of NLuc-CLR:RAMP3 (N-terminally nanoluciferase-tagged CLR co-expressed with RAMP3; AM2 receptor) (human) (O60896 24-148, chain 2 of 2, further chain): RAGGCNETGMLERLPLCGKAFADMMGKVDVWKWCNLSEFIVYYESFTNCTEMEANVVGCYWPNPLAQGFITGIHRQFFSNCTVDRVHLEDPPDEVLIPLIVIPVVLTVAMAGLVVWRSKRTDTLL

As usually defined, the pKd is the negative decadic logarithm of the Kd, by convention in mol/L. “AM2/IMD-TAMRA (adrenomedullin 2/intermedin labeled with TAMRA on a Lys substituted at D35) (peptide)” gave a pKd of 8.15; a dissociation half-life, fast component of 7 min; a dissociation half-life, slow component of 76 min; a half-life (t1/2) from the off-rate of the association kinetics analysis of 21 min.

“AM-TAMRA (adrenomedullin labeled with TAMRA on a Lys substituted at N40) (peptide)” showed a pKd of 7.59; a dissociation half-life, fast component of 0.75 min; a dissociation half-life, slow component of 6.9 min; a half-life (t1/2) from the off-rate of the association kinetics analysis of 2.5 min.

For the origin of these results see article PMC9882245.
